≈ marks a conversion by molar mass, not a printed value. Read-outs that look alike come from different tables or passages of the source.
What was measured:
[1] = test system: MDA-MB-468; test: cells; settings: Homo sapiens
[2] = target: Control-MMB (Homo sapiens, UniProt P01857); test: Phage ELISA on Control-MMB; type: binding
Procedure: (§1) The protein solution was removed and wells were rinsed twice with Tris-Buffered Saline containing 0.05% Tween-20 (TBS-T) using a plate washer (Embla). The wells were blocked with Starting Block in TBS for 1 hr at room temperature and rinsed twice with TBS-T. An equal volume of phage supernatant and Starting Block in TBS were incubated in the wells for 1 hr at room temperature, and the wells were rinsed five times with TBS-T. Anti-M13/horseradish peroxidase conjugate (Amersham), diluted 1:5000 in Starting Block in TBS, was added into the wells and incubated for 1 hour at room temperature, and then the wells were rinsed five times with TBS-T. Finally, chemiluminescent peroxidase substrate (Roche) was added to the wells, and chemiluminescence was measured on a Tecan plate reader.
The plates were held overnight at room temperature, washed twice with TBST (0.5M Tris Base, 9% NaCl, 0.05% tween, pH 7.6), and loaded with 200 μL per well of Starting Block (Pierce). […] The plates were held at room temperature for 1.5 hours for blocking Plates were then washed twice with TBST and phage were added. […] After a one-hour incubation the plates were washed five times with TBST, 100 μL of POD (BM Chemiluminescence ELISA substrate; Roche Applied Science) was added, and chemiluminescene recorded.

[3] = test system: A431 cells; test: Flow cytometry of phage binding to A431 cells; type: cell-based, human; settings: for binding to A431 tumor cells: anti-phage-FITC
Procedure: (§2) To evaluate whether the selected peptides from phage display can bind to tumor cells that overexpress EGFR, A431 cells (epidermoid cancer) or an EGFR negative tumor cells, MCF-7 (breast carcinoma) were tested in a flow cytometry assay using fluorescence detection (FACS). For P145, PP146 and their control phage, 2.5×10^5 A431 cells were resuspended in 25 μl of flow staining buffer (dPBS with 1% BSA, 0.09% sodium azide) and incubated with 25 μl of phage clones for 1 hour at 4° C. […] Cells were washed two times with flow staining buffer and then incubated with 0.5 μg of mouse anti M13/fd/Fl filamentous phages monoclonal antibody conjugated to FITC (Fitzgerald Industries International, Inc. Concord, Mass.) for 45 minutes at 4° C. Cells were washed two times with flow staining buffer and acquired by FACSCalibur (BD, Franklin Lakes, N.J.) to detect bound phages on tumor cell surface.
A431 cells (epidermoid cancer) which overexpress EGFR and EGFR-negative tumor cells, MCF-7 (breast carcinoma) were tested in a flow cytometry assay. Tumor cells (A431 and MCF-7) were harvested with 0.25% tyrpsin-EDTA and washed twice with FACS staining buffer (dPBS with 1% BSA, 0.09% sodium azide). […] After binding at 4° C., cells were washed twice with FACS staining buffer to remove unbound phage and then incubated with 0.5 μg of mouse anti-M13 monoclonal antibody conjugated to FITC (Fitzgerald Industries International, Inc. Concord, Mass.) for 1 hour at 4° C. Mouse anti-M13-FITC incubated with cells without phage was used as background binding. Cells were washed twice with FACS staining buffer to remove unbound detection antibody.

[4] = target: T1, EGF + sEGFR-MMB Complex (Homo sapiens, UniProt P00533); test: Phage ELISA on sEGFR-MMB in the presence of EGF; type: binding
T1 construct: made in house
Procedure: (§3) The plates were held overnight at room temperature, washed twice with TBST (0.5M Tris Base, 9% NaCl, 0.05% tween, pH 7.6), and loaded with 200 μL per well of Starting Block (Pierce). […] The plates were held at room temperature for 1.5 hours for blocking Plates were then washed twice with TBST and phage were added. The phage solutions were crude phage supernatant from overnight cultures diluted four-fold with Starting Block. After a one-hour incubation, the plates were washed thrice with TBST and 100 μL of a 1:5000 dilution of phage binding antibody conjugate (α-M13-HRP) was added to the wells. EGF was added if applicable. After a one-hour incubation the plates were washed five times with TBST, 100 μL of POD (BM Chemiluminescence ELISA substrate; Roche Applied Science) was added, and chemiluminescene recorded.

[5] = target: T2, sEGFR-MMB (Homo sapiens, UniProt P00533); test: Phage ELISA on coated sEGFR-MMB; type: binding
T2 construct: made in house; host or cells: HEK 293E
Procedure: as §1
(§4) Phage were amplified in XL-1 Blue host cells and purified by precipitation with 6% polyethylene glycol-8000/0.5 M sodium chloride. The precipitated phage were resuspended in phosphate-buffered saline in a volume that was 1/100th the original culture volume. […] The binding reaction was incubated for 1 hr at room temperature, and then bound phage were detected with anti-M13/HRP as above. For ELISAs with biotinylated receptors, streptavidin at 5 μg/ml was coated in the wells overnight at 4° C. […] The wells were rinsed with TBS-T and then blocked with Starting Block. Bound phage were washed and detected with anti-M13/HRP as described above.
as §3

[6] = test system: MCF-7; test: Flow cytometry of phage binding to MCF-7 cells; type: cell-based, human
Procedure: as §2
A431 cells (epidermoid cancer) which overexpress EGFR and EGFR-negative tumor cells, MCF-7 (breast carcinoma) were tested in a flow cytometry assay. Tumor cells (A431 and MCF-7) were harvested with 0.25% tyrpsin-EDTA and washed twice with FACS staining buffer (dPBS with 1% BSA, 0.09% sodium azide). […]

[7] = target: T3, sEGFR-His6 (Homo sapiens, UniProt P00533); test: Phage ELISA on coated sEGFR-His6; type: binding
T3 construct: made in house; host or cells: HEK293E
Procedure: as §3

[8] = target: T2, sEGFR-MMB; test: Competitive phage ELISA (EGF, TGF-α, IMC-c225 as competitive agent); type: binding
Procedure: as §4

[9] = target: T4, b-sEGFR-MMB (Homo sapiens, UniProt P00533); test: Phage ELISA on biotinylated sEGFR-MMB captured on streptavidin; type: binding
T4 construct: made in house; host or cells: HEK 293E
Procedure: as §4

[10] = target: T5, b-sEGFR-His (Homo sapiens, UniProt P00533); test: Phage ELISA on biotinylated sEGFR-His6 captured on streptavidin; type: binding; settings: biotinylated and immobilized on streptavidin
T5 construct: made in house; host or cells: HEK293E
Procedure: as §4

binding to sEGFR-MMB (in words) [5] | binding to sEGFR-His6 (in words) [10] | Compound | binding to A431 tumor cells [3] | competition with EGF, TGF-α, IMC-c225 (in words) [8] | binding to A431 relative to positive control EGF phage [3] | other results
– | – | COc1cccc2c1C(=O)c1c(O)c3c(c(O)c1C2=O)C[C@@](O)(C(=O)CO)C[C@@H]3O[C@H]1C[C@H](N)[C@H](O)[C@H](C)O1 [Doxorubicin] | – | – | – | IC50 ([1]; MDA-MB-468, read-out: IC50 D4): 2.5 mg/L (≈ 4.6 µM); IC50 ([1]; MDA-MB-468, read-out: IC50 D6): < 1.6 mg/L
bound both sEGFR-MMB and sEGFR-His6 | bound both sEGFR-MMB and sEGFR-His6 | KTCVSTTFDLWFVCFA (Random peptide) [P176] | displayed binding to A431 tumor cells | competitive with IMC-c225 (cetuximab), EGF, and TGF-α | comparable to that by a positive control phage that displayed EGF on pIX | –
bound sEGFR-MMB | not sEGFR-His6 | LPDDSLPELICKVRG (Random peptide) [P175] | – | did not compete with EGFR ligands | – | –
bound both sEGFR-MMB and sEGFR-His6 | bound both sEGFR-MMB and sEGFR-His6 | SGCLDALWQCVY (Random peptide) [P174] | displayed binding to A431 tumor cells | not inhibited by the EGFR ligands tested | comparable to that by a positive control phage that displayed EGF on pIX | –
– | – | TLCRSFFHPLCYA (Random peptide) [P146] | displayed binding to A431 tumor cells | – | weaker than that exhibited by a positive control phage that displayed EGF on pIII | –
– | – | VLCHRYYHPICYT [P145] | displayed binding to A431 tumor cells | – | weaker than that exhibited by a positive control phage that displayed EGF on pIII | –

Compound | binding to sEGFR-MMB (in words) [5] | binding to sEGFR-His6 (in words) [10] | binding to A431 tumor cells [3] | competition with EGF, TGF-α, IMC-c225 (in words) [8] | binding to A431 relative to positive control EGF phage [3] | other results
DPCTWEVWGRECLQ [P190] | binds weakly | – | bind to A431 | did not compete with EGF or TGF-alpha | – | binding to Control-MMB (in words) [2]: fails to bind; binding to A431 cells in the presence of EGF [3]: increased; binding to A431 cells in the presence of EGF and cetuximab [3]: decreases; binding to dimeric EGFR in the presence of EGF or TGF-a ([4]; pIX display): increased in the presence of EGF or TGF-a; binding to the complex between EGF and sEGFR-MMB (in words) ([4]; phage ELISA): binds well; Relative Signal ([4]; phage ELISA, construct SEGFR-MMB + EGF): 29408 ± 259; Relative Signal ([5]; construct SEGFR-MMB): 3937 ± 335; binding to MCF-7 [6]: not to MCF-7; binding to sEGFR-His6 (in words) ([7]; coated monomeric sEGFR): virtually no binding; Relative Signal ([7]; construct sEGFR-His6): 6
GPCVLIRDYYLLCLE (Random peptide) [P179] | bound sEGFR-MMB when it was passively immobilized in ELISA wells | – | – | – | – | binding to biotinylated sEGFR-MMB captured on streptavidin (in words) [9]: not biotinylated sEGFR-MMB that had been captured on streptavidin

— patent US8278415B2, “Dimeric high affinity EGFR constructs and uses thereof” (Centocor, Inc., priority 2006, dated 2012)
